The target in assay [1] is T1, HER2 (Homo sapiens, UniProt P04626). Nature of the assay: Confocal microscopy of FITC-labeled candidate peptides binding to Flo1-HER2 and Q-hTERT (control) cells. The following applies: FITC-labeled peptide 10 μM, Flo1-HER2 relative to Q-hTERT cells. The format is cell-based. As to the method: Flo-1-Her2 and Q-hTERT cells were seeded with ˜7,500 cells in 12-well plates with 1.5 mm thick glass cover slides, and grown to ˜70% confluence. The cells were gently washed with cold PBS before adding the peptide. 10 μM of FITC-labeled peptide was added to each well and incubated at 4° C. for 1 hour. After incubation, the cells were washed 3× with PBS, fixed in ice-cold 4% PFA for 10 min, and washed 1× with PBS. Subsequently, the cells were embedded on microscope slides with ProLong Gold reagent containing DAPI (Invitrogen), and the slides where analyzed with a Leica TCS SP5 confocal microscope using 63× oil immersion objective (Leica Microsystems, Leider Lane IL). The FITC-labeled peptides and anti-HER2 antibody were tested in quadruplicate.

Assay [2] addresses T2, colonic adenomas that over express HER2 (Mus musculus, UniProt P70424).
T2 construct: validate over expression of HER2 in mouse colonic dysplasia; from tissue; host or cells: colonic adenomas / colon of CPC;Apc mice (in vivo, excised colon, fixed sections)
Nature of the assay: In vivo endoscopic NIR imaging of mouse colonic adenomas, topical peptide reagent. The following applies: CPC;Apc mice. How it is done:
Mouse imaging studies were performed with approval of the University of Michigan Committee on the Use and Care of Animals (UCUCA). The mice were housed in pathogen-free conditions and supplied water ad libitum under controlled conditions of humidity (50±10%), light (12/12 hour light/dark cycle) and temperature (25° C.). Anesthesia was induced and maintained via a nose cone with inhaled isoflurane mixed with oxygen at a concentration of 2-4% at a flow rate of ˜0.5 L/min. The colon was first rinsed with tap water to remove mucous and debris. White light illumination was used first to identify anatomic landmarks, including polyps, mucosal folds, colonic segment, and distance of endoscope tip from anus, to register the in vivo images with histology. […] During imaging, we recorded the 1) distance between the endoscope tip and the anus and 2) clockwise location of each region of high intensity. […]
White light and fluorescence videos were exported in avi format with 24 (RGB) and 8 (grayscale) bit digital resolution for the color and fluorescence images, respectively. […] On the fluorescence images, 3 regions of interest (ROI) with dimensions of 25×25 pixels were picked to represent a range of staining for normal and diseased tissues and averaged. The mean intensities within these ROI were determined to calculate the target to-background (T/B) ratio.

Assay [3] deals with T3, HER2 over expressed by mouse colonic dysplasia (Mus musculus, UniProt P70424).
T3 construct: validate over expression of HER2 in mouse colonic dysplasia; from tissue; host or cells: colonic adenomas / colon of CPC;Apc mice (in vivo, excised colon, fixed sections)
Nature of the assay: Peptide reagent immunofluorescence on mouse colonic adenoma sections. The following applies: 2 μM, 10 min at RT, confocal microscopy. How it is done: Specimens of mouse colonic adenoma were formalin fixed and processed, as described previously. Serial 5 μm sections were incubated with 2 μM of each peptide for 10 min at RT. The sections were washed 3× with PBS, and mounted with Prolong Gold reagent containing DAPI (Invitrogen). Adjacent sections were processed for histology (H&E).

Assay [4] has as its target T4, ErbB2 (HER2) (Homo sapiens, UniProt P04626).
T4 construct: specimens of human esophagus were obtained from an archived tissue bank; from tissue; host or cells: FFPE human esophagus (SQ, BE, LGD, HGD, EAC)
Kind of assay: Staining of FFPE human Barrett's esophagus specimens with peptide reagents. The following applies: excised human specimens, 5 μM, 10 min. How it is done:
Formalin-fixed, paraffin-embedded (FFPE) specimens of human esophagus were obtained from an archived tissue bank. 5 μm thick sections were cut, and mounted onto glass slides (Superfrost Plus, Fischer Scientific). The tissues were deparaffinized, and antigen retrieval was performed. The sections were blocked with protein serum for 15 min at room temperature followed by rinsing with PBS. The sections were then stained with either KSP*-Cy5.5 or RHP*-Cy5.5 at 5 μM concentration for 10 min at room temperature. The sections were then washed 3× for 3 min with PBS and further incubated with anti-HER2 antibody overnight at 4° C. Sections were washed 3× with PBST and mounted with Prolong Gold reagent containing DAPI (Invitrogen) using #1 cover glass ([…]).

The target in assay [5] is T1, HER2. Nature of the assay: Confocal fluorescence microscopy of peptide reagent binding to HT29 and SW480 cells. On the set-up: host or cells: HT29, SW480. The format is cell-based. As to conditions: 5 μM, 30 min at 4° C. How it is done: Cells were washed with PBS and incubated with 5 μM of KSP*-Cy5.5 and PPS*-Cy5.5 for 30 min at 4° C. The cells were then washed 3× in PBS, fixed with ice cold 4% paraformaldehyde (PFA) for 10 min, washed 1× with PBS, and then mounted on glass slides with ProLong Gold reagent containing DAPI (Invitrogen). Confocal fluorescence images were collected with Cy5.5, and DAPI filters (Leica Inverted SPSX Confocal Microscope System). For antibody staining, the cells were pre-fixed with cold methanol for 10 min at −20° C. and blocked with 2% BSA for 30 min at RT. Cells were incubated with 1:450 dilution of anti HER2 antibody overnight at 4° C. The cells were washed 3× with PBS and processed for secondary staining. Goat-anti rabbit Alexa-Fluor 488 (AF488) was added to the cells and incubated for 1 hour at RT. Cells were further washed 3× with PBS and mounted onto glass cover slips. Fluorescence intensities from 3 independent images were quantified using custom Matlab (Mathworks) software.

Assay [6] concerns HER2-mediated signaling. Kind of assay: Effect of HER2 peptide on cell signaling (western blot). The class given is cell-based, human. As to conditions: 48 hours. As to the method:
SKBR3 cells are commonly used to evaluate HER2 signaling, and were grown in 6 well plates to ˜60% confluence. Unlabeled KSP* peptide was added to separate wells at concentrations of 5 and 100 μM. Lapatinib, a tyrosine kinase inhibitor, was used as a positive control and was added in concentrations of 1, 25, 100 and 1000 nM. Lapatinib stock solution starting at 1 mg/mL was diluted in DMSO and PBS. 1% DMSO treated cells and untreated cells were used as control. After 48 hours following treatment, the cells were harvested for western blot analysis. Anti-HER2 antibody (Cell Signaling, #2165), phospho-HER2/ErbB2 (Tyr1248) antibody (Cell Signaling, #2247), anti-AKT (Cell Signaling, #4691P), anti-ERK1/2 (Cell Signaling, #4695P), anti-phospho-AKT (pS473), (Cell Signaling, #4060P), anti-phospho-ERK1/2 (Cell Signaling, #4370P) and anti-tubulin (Invitrogen, #32-2600) were used per manufacturer's instructions.
(Immunoblotting shows a protein as a band on a membrane.)

The target in assay [7] is T1, HER2. Kind of assay: Competition for peptide reagent binding with unlabeled KSP* on HT29 cells. Also on record: host or cells: HT29. The following applies: unlabeled KSP* 0, 10, 25, 50, 100 μM, then 2 μM KSP*-Cy5.5. How it is done:
Specific binding of KSP*-Cy5.5 to HT29 cells was validated on competitive inhibition with unlabeled KSP* peptide reagent. ˜7500 HT29 cells were grown to ˜70% confluence on cover slips in triplicate. Unlabeled KSP* peptide at 0, 10, 25, 50, and 100 μM were added and incubated with the cells for 30 min at 4° C. The cells were washed 3× with PBS, and further incubated with 2 μM of KSP*-Cy5.5 for another 30 min at 4° C. The cells were washed 3× with PBS and fixed with 4% PFA for 10 min. The cells were washed with PBS and mounted with ProLong Gold reagent containing DAPI (Invitrogen). Confocal fluorescence images were collected at each concentration, and intensities from 3 independent images were quantified using custom Matlab (Mathworks) software.

“Also recorded” adds a separate entry of the source. Ends that are not written are not given here.

T2 sequence (P70424 23-1256): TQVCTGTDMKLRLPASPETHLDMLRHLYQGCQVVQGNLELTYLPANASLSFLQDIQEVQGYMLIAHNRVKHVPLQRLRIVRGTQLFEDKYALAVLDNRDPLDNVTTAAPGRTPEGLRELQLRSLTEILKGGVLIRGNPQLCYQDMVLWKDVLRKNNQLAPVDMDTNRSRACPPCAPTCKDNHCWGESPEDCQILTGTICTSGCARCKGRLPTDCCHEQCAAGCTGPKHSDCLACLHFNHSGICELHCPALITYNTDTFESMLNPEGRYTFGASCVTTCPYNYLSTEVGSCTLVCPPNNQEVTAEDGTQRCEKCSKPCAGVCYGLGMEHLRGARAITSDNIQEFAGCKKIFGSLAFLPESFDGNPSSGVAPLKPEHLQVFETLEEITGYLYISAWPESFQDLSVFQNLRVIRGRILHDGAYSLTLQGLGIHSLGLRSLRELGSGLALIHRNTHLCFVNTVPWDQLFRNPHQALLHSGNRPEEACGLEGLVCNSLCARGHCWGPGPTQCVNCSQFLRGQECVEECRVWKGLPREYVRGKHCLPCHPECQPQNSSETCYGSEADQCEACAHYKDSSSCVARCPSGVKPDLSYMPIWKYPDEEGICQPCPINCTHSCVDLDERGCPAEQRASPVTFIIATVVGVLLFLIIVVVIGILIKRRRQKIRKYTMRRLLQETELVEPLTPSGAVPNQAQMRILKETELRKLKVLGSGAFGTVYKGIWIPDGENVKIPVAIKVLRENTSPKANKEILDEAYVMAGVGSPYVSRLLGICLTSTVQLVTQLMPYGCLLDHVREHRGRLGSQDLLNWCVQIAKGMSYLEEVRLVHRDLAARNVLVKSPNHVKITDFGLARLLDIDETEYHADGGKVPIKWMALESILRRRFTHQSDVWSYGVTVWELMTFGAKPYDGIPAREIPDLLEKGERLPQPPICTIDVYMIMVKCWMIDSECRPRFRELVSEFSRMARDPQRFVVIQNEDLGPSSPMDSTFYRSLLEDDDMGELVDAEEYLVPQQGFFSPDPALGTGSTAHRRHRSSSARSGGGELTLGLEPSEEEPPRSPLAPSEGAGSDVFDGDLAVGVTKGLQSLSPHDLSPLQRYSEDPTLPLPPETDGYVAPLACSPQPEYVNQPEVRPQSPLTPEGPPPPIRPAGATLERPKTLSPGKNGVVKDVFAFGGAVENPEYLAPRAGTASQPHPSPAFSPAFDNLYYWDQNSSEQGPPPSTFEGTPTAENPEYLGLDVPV
T3 sequence (P70424 23-1256): as above

As for “KSPNPRF (also: FITC label, site not given here) [HER2-specific peptide; FITC-labeled for candidate selection]”, the “mean fluorescence intensity compared with other peptide candidates” value in assay [1] is reported as “highest mean fluorescence intensity”.

Turning to “PPS*-Cy5.5: scrambled control peptide PPSNFKR linked to Cy5.5 via GGGSK (PPSNFKRGGGSK-{Cy5.5-NH2}; also: Cy5.5 attached via GGGSK linker, end not given here)”, the “mean (±std) T/B ratio” value in assay [2] (topical 100 μM, 5 min incubation, adenomas) turned out to be 1.46±0.25. The “NIR fluorescence signal from polyp / flat adenoma” value in assay [2] (topical administration) is listed as “Minimal signal; also recorded: significantly reduced signal”. The “staining of normal mouse colonic mucosa” value in assay [3] is on record as “Minimal staining”. The “staining with cancer progression in Barrett's esophagus (SQ, BE, LGD, HGD, EAC)” value in assay [4] is on record as “Minimal staining”. Further, the “binding to cell surface on confocal microscopy” value in assay [5] is on record as “minimal binding”.

On to `CS(=O)(=O)CCNCc1ccc(-c2ccc3ncnc(Nc4ccc(OCc5cccc(F)c5)c(Cl)c4)c3c2)o1` [lapatinib], for which the “phosphorylation of HER2 (p-HER2), AKT (p-AKT) and ERK (p-ERK)” value in assay [6] (1 to 1000 nM) is given as “reduced expression; also recorded: dose dependent reduction”.

Regarding “KSP*: unlabeled KSP* peptide (KSPNPRF without Cy5.5 fluorophore)”, in assay [6] (5 and 100 μM), the “phosphorylation of HER2 (p-HER2), AKT (p-AKT) and ERK (p-ERK)” value is “no change; also recorded: no reduction”. The “fluorescence intensity of KSP*-Cy5.5 on competition with unlabeled peptide” value in assay [7] is listed as “decrease significantly in a concentration dependent manner”.

The values are drawn from patent publication US10858396B2, “HER2 peptide regents and methods” (THE REGENTS OF THE UNIVERSITY OF MICHIGAN, priority 2015, dated 2020).
